Data: publication PMC7906951

T1: Card1 (Tresu_2185, Cad1) (Treponema succinifaciens, UniProt F2NWD3 1-372)
T1 sequence: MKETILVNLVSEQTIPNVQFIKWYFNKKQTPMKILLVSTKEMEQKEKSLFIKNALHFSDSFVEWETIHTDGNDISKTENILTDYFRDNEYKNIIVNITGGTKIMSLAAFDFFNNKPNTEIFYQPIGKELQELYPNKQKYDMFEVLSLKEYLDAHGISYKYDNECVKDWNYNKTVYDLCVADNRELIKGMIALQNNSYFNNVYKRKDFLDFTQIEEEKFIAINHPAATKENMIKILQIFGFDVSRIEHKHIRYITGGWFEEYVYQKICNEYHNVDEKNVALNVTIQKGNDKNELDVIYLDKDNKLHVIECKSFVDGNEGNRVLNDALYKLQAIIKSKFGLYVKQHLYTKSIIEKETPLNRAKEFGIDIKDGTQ

T2: Card1 D294N (Treponema succinifaciens, UniProt F2NWD3 1-372, D294N)
T2 sequence: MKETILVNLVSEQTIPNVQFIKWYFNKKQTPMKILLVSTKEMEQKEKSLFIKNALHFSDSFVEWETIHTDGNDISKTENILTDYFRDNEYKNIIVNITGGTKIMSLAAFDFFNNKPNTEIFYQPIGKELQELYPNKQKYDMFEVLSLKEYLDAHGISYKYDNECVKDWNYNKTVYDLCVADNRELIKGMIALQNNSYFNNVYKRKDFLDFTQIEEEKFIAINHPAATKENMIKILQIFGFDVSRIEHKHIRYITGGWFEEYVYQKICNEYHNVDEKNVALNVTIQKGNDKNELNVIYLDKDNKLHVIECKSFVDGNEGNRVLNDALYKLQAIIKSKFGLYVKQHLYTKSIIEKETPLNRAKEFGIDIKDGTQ


What was measured:
Card1 (Tresu_2185, Cad1) = biological target: T1, Card1 (Tresu_2185, Cad1); assay: ITC
Card1 D294N = biological target: T2, Card1 D294N; assay: crystal structure

Binder | Kd (Card1 (Tresu_2185, Cad1)) | binding result (Card1 D294N)
AAAAAA (ssRNA, cyclic 3'-5' oligoadenylate; no free ends) [cA6 (cyclic hexaadenylate)] | 78 nM | –
AAAA (ssRNA, cyclic 3'-5' oligoadenylate; no free ends) [cA4 (cyclic tetraadenylate)] | 15 nM | binds
